From IntAct's records for PubMed 21804557

B1: Indoleamine 2,3-dioxygenase 1 (Mus musculus), P28776 (parent)
chain: MALSKISPTEGSRRILEDHHIDEDVGFALPHPLVELPDAYSPWVLVARNLPVLIENGQLREEVEKLPTLSTDGLRGHRLQRLAHLALGYITMAYVWNRGDDDVRKVLPRNIAVPYCELSEKLGLPPILSYADCVLANWKKKDPNGPMTYENMDILFSFPGGDCDKGFFLVSLLVEIAASPAIKAIPTVSSAVERQDLKALEKALHDIATSLEKAKEIFKRMRDFVDPDTFFHVLRIYLSGWKCSSKLPEGLLYEGVWDTPKMFSGGSAGQSSIFQSLDVLLGIKHEAGKESPAEFLQEMREYMPPAHRNFLFFLESAPPVREFVISRHNEDLTKAYNECVNGLVSVRKFHLAIVDTYIMKPSKKKPTDGDKSEEPSNVESRGTGGTNPMTFLRSVKDTTEKALLSWP

Variants of: B1
Settings: with ptn6_mouse Ptpn6, P29351

effect of a mutation on the interaction	Variant
decreasing interaction	Y115F;Y253F
